B1: His-tagged Ahp1, wild-type (recombinant) [S. cerevisiae] / itself (parent)
chain: MSDLVNKKFPAGDYKFQYIAISQSDADSESCKMPQTVEWSKLISENKKVIITGAPAAFSPTCTVSHIPGYINYLDELVKEKEVDQVIVVTVDNPFANQAWAKSLGVKDTTHIKFASDPGCAFTKSIGFELAVGDGVYWSGRWAMVVENGIVTYAAKETNPGTDVTVSSVESVLAHL

Variants of: B1
Assay: SEC-MALS
Settings: with itself

screen value	Variant
22.8 kDa	MSDLVNKKFPAGDYKFQYIAISQSDADSESCKMPQTVEWSKLISENKKVIITGAPAAASPTCTVSHIPGYINYLDELVKEKEVDQVIVVTVDNPFANQAWAKSLGVKDTTHIKFASDPGCAFTKSIGFELAVGDGVYWSGRWAMVVENGIVTYAAKETNPGTDVTVSSVESVLAHL [chain 1 F58A]
31.6 kDa	MSDLVNKKFPAGDYKFQYIAISQSDADSESCKMPQTVEWSKLISENKKVIITGAPAAFSPTCTVSHIPGYINYLDELVKEKEVDQVIVVTVDNPAANQAWAKSLGVKDTTHIKFASDPGCAFTKSIGFELAVGDGVYWSGRWAMVVENGIVTYAAKETNPGTDVTVSSVESVLAHL [chain 1 F95A]
20.4 kDa	MSDLVNKKFPAGDYKFQYIAISQSDADSESCKMPQTVEWSKLISENKKVIITGAPAAASPTCTVSHIPGYINYLDELVKEKEVDQVIVVTVDNPAANQAWAKSLGVKDTTHIKFASDPGCAFTKSIGFELAVGDGVYWSGRWAMVVENGIVTYAAKETNPGTDVTVSSVESVLAHL [chain 1 F58A F95A]
